Reference: patent US20140221282A1 (AstraZeneca / MedImmune, published 2014)
Ends that are not written are not given here. Y‑shaped‑mPEG40KD = Y-shaped methoxy-PEG of 40 kDa attached to the Lys side chain; mPEG40KD = methoxy-PEG of 40 kDa

T1: amylin receptor of rat nucleus accumbens membranes (rat)
T1 chain 1: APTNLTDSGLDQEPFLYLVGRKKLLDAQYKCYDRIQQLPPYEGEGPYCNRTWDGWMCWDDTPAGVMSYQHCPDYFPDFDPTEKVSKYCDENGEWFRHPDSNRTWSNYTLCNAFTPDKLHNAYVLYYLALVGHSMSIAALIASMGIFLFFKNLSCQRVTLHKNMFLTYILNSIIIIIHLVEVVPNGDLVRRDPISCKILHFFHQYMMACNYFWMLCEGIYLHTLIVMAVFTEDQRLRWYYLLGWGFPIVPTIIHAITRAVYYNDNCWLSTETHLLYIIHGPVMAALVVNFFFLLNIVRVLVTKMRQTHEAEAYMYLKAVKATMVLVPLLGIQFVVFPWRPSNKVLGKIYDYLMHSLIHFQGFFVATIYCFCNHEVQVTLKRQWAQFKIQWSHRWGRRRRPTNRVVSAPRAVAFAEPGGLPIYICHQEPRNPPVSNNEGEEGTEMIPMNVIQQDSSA
T1 chain 2: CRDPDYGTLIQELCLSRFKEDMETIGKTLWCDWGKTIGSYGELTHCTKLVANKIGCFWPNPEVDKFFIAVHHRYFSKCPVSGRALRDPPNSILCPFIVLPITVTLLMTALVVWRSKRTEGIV

T2: human amylin receptor 3 (human, UniProt P30988 25-474; O60896 24-148)
T2 sequence (looked up) 1: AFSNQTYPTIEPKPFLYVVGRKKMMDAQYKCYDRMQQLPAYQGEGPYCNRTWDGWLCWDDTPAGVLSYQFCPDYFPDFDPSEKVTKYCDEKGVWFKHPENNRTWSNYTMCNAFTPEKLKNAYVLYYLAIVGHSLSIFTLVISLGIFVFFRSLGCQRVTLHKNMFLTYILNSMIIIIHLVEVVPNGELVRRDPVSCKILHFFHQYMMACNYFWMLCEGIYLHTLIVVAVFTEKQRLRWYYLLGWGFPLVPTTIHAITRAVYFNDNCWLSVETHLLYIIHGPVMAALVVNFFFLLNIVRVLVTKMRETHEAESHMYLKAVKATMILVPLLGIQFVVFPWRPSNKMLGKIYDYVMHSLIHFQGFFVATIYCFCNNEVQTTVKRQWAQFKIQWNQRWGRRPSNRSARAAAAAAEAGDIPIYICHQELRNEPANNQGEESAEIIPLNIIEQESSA
T2 sequence (looked up) 2: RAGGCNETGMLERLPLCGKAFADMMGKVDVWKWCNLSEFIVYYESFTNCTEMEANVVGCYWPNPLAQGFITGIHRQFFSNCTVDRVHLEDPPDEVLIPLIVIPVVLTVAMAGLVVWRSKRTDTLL


How the values were obtained:
[1] = molecular target: T1, amylin receptor of rat nucleus …; assay: competition with 125I-rat amylin, rat nucleus accumbens membranes
human amylin receptor 3 [2] = molecular target: T2, human amylin receptor 3; assay: cell-based or functional assay
[3] = molecular target: T3, amylin receptor of rat nucleus accumbens membranes (rat); assay: competition with 125I-rat amylin, rat nucleus accumbens membranes
T3 construct: whole, on cells; native tissue membranes; also called RNA membranes

human amylin receptor 3 [4] = molecular target: T2, human amylin receptor 3; assay: competition with 125I-rat amylin, human AMY3 receptor

Row | IC50 [1] [nM] | Functional EC50, Human AMY3 (human amylin receptor 3 [2]) [nM] | IC50 [3] [nM] | IC50 (human amylin receptor 3 [4]) [nM] | Binder
1 | 148 | 1.66 | – | – | CNTATCATQRLANFLVHSSNK(mPEG 40 kDa)FGPILPPTNVGSNTY-NH2 (ends and bridges not checked, also called Cmpd 85) [[K^22(mPEG40KD)]-Cmpd 58]
2 | – | – | 0.1 | – | KCNTATCATQRLANFLVRSSNNLGPVLPPTNVGSNTY-NH2 (ends and bridges not checked, also called Cmpd 49) [rat amylin, KCNTATCATQRLANFLVRSSNNLGPVLPPTNVGSNTY-NH2]
3 | 54 | – | – | – | CNTATCATQRLANFLVRSSNNLGPK(mPEG40KD)LPPTNVGSNTY-NH2 (ends and bridges not checked, also called Cmpd 72) [[K^26(mPEG40KD)]-Cmpd 54]
4 | 104 | – | – | – | KCNTATCATQRLANFLVRSSK(mPEG 40 kDa)NLGPVLPPTNVGSNTY-NH2 (ends and bridges not checked, also called Cmpd 69) [[K^21(mPEG40KD)]-Cmpd 51]
5 | 86 | – | – | – | KCNTATCATQRLANFLVRSSNNLGPVLPPTK(mPEG40KD)VGSNTY-NH2 (ends and bridges not checked, also called Cmpd 73) [[K^31(mPEG40KD)]-Cmpd 55]
6 | – | 0.082 | – | 74 | CNTATCATQRLANFLVHSSNNFGPK(mPEG40KD)LPPTNVGSNTY-NH2 (ends and bridges not checked, also called Cmpd 88) [[K^26(mPEG40KD)]-Cmpd 58]
7 | 112 | – | – | – | CNTATCATQRLANFLVRSSK(mPEG 40 kDa)NLGPVLPPTNVGSNTY-NH2 (ends and bridges not checked, also called Cmpd 70) [[K^21(mPEG40KD)]-Cmpd 52]
8 | – | 0.078 | 39 | 60 | CNTATCATQRLANFLVHSSNNFGPK(mPEG40KD)LPPTNVGSNTY-NH2 (ends and bridges not checked, also called Cmpd 77) [[K^26(mPEG40KD)]-Cmpd 60]
9 | – | 0.034 | – | 77 | CNTATCATQRLANFLVHSSNNFGPILPPTNVGK(mPEG40KD)NTY-NH2 (ends and bridges not checked, also called Cmpd 94) [[K^34(mPEG40KD)]-Cmpd 58]
10 | – | 0.122 | – | 143 | CNTATCATQRLANFLVHSSNNFGPILPPTNVGSK(mPEG40KD)TY-NH2 (ends and bridges not checked, also called Cmpd 95) [[K^35(mPEG40KD)]-Cmpd 58]
11 | – | 5.51 | – | 918 | CNTATCATQRLANFLVHSK(mPEG 40 kDa)NNFGPILPPTNVGSNTY-NH2 (ends and bridges not checked, also called Cmpd 91) [[K^20(mPEG40KD)]-Cmpd 58]
12 | 61 | 0.1 | – | 80 | CNTATCATQRLANFLVHSSNNFGPILPPTK(mPEG40KD)VGSNTY-NH2 (ends and bridges not checked, also called Cmpd 78) [[K^31(mPEG40KD)]-Cmpd 61]
13 | – | 2.23 | – | 334 | CNTATCATQRLANFLK(mPEG 40 kDa)HSSNNFGPILPPTNVGSNTY-NH2 (ends and bridges not checked, also called Cmpd 89) [[K^17(mPEG40KD)]-Cmpd 58]
14 | 611 | 2.82 | – | 240 | CNTATCATQRLANFLVHSSNNK(mPEG 40 kDa)GPILPPTNVGSNTY-NH2 (ends and bridges not checked, also called Cmpd 86) [[K^23(mPEG40KD)]-Cmpd 58]
15 | – | 0.85 | – | 238 | CNTATCATQRLANFLVK(mPEG 40 kDa)SSNNFGPILPPTNVGSNTY-NH2 (ends and bridges not checked, also called Cmpd 90) [[K^18(mPEG40KD)]-Cmpd 58]
16 | 51 | 0.2 | – | 87 | CNTATCATQRLANFLVHSSNNFGPIK(mPEG40KD)PPTNVGSNTY-NH2 (ends and bridges not checked, also called Cmpd 82) [[K^27(mPEG40KD)]-Cmpd 64]
17 | – | 24.7 | – | 1000 | CNTATCATQRLANFLVHSSNNFGPILPPTNK(mPEG40KD)GSNTY-NH2 (ends and bridges not checked, also called Cmpd 92) [[K^32(mPEG40KD)]-Cmpd 58]
18 | 131 | 1.75 | – | 388 | CNTATCATQRLANFLVHSSK(mPEG 40 kDa)NFGPILPPTNVGSNTY-NH2 (ends and bridges not checked, also called Cmpd 76) [[K^21(mPEG40KD)]-Cmpd 59]
19 | 27 | 0.11 | – | 47 | CNTATCATQRLANFLVHSSNNFGPILPK(mPEG40KD)TNVGSNTY-NH2 (ends and bridges not checked, also called Cmpd 84) [[K^29(mPEG40KD)]-Cmpd 66]
20 | 31 | 0.086 | – | 48 | CNTATCATQRLANFLVHSSNNFGK(mPEG40KD)ILPPTNVGSNTY-NH2 (ends and bridges not checked, also called Cmpd 81) [[K^25(mPEG40KD)]-Cmpd 63]
21 | – | 1.69 | – | 860 | CNTATCATQRLANFLVHSSNNFGPILPPTNVK(mPEG40KD)SNTY-NH2 (ends and bridges not checked, also called Cmpd 93) [[K^33(mPEG40KD)]-Cmpd 58]
22 | 53 | 0.2 | – | 46 | CNTATCATQRLANFLVHSSNNFGPILK(mPEG40KD)PTNVGSNTY-NH2 (ends and bridges not checked, also called Cmpd 83) [[K^28(mPEG40KD)]-Cmpd 65]
23 | 599 | 4.25 | – | 685 | CNTATCATQRLANFLVHSSNNFGPILPPK(mPEG40KD)NVGSNTY-NH2 (ends and bridges not checked, also called Cmpd 87) [[K^30(mPEG40KD)]-Cmpd 58]
24 | – | 3.07 | – | 984 | CNTATCATQRLANFLVHSSNNFGPILPPTNVGSNK(mPEG40KD)Y-NH2 (ends and bridges not checked, also called Cmpd 96) [[K^36(mPEG40KD)]-Cmpd 58]
25 | 79 | 0.41 | – | 111 | CNTATCATQRLANFLVHSSNNFK(mPEG40KD)PILPPTNVGSNTY-NH2 (ends and bridges not checked, also called Cmpd 80) [[K^24(mPEG40KD)]-Cmpd 62]
26 | 75 | – | – | – | CNTATCATQRLANFLVRSSNNLGPVLPPTK(mPEG40KD)VGSNTY-NH2 (ends and bridges not checked, also called Cmpd 74) [[K^31(mPEG40KD)]-Cmpd 56]
27 | – | 1.74 | 132 | 1130 | CNTATCATQRLANFLVHSSNNFGPK(Y‑shaped‑mPEG40KD)LPPTNVGSNTY-NH2 (ends and bridges not checked, also called Cmpd 79) [[K^26(Y-shaped-mPEG40KD)]-Cmpd 60]
